According to PMC6800875, “Codon harmonization reduces amino acid misincorporation in bacterially expressed P. falciparum proteins and improves their immunogenicity” (AMB Express, 2019):

Assays:
[1] = biological target: the molecule itself; experiment: SDS-PAGE with western blot (band that resists denaturation); purified protein, untreated or incubated at 37 °C or 65 °C for 1, 4 and 24 h, on 4-20% Tris-glycine SDS-PAGE; blots probed with anti-His mAb and mAb 3D11.D4
[2] = biological target: the molecule itself; experiment: SEC; calibrated Superdex G-200 column, PBS pH 7.4, 0.5 mL/min, 4 °C; three standards (66, 29, 12.4 kDa); oligomer size estimated from the elution volume

Protein	stoichiometry N [1]	stoichiometry N [2]
N-PfCelTOS (P. falciparum cell-traversal protein for ookinetes and sporozoites, expressed from the native codon sequence) (natural protein, begins at F R G and holds 158 PfCelTOS residues; 174 residues in all with the 16 amino acid linker; natural residue numbering; also called N-protein; source: E. coli B834 (DE3), purified (Ni-NTA, Q-Sepharose); not shown: His6 (within a 16 amino acid linker), N-terminal, kept) FRGNNGHNSSSSLYNGSQFIEQLNNSFTSAFLESQSMNKIGDDLAETISNELVSVLQKNSPTFLESSFDIKSEVKKHAKSMLKELIKVGLPSFENLVAENVKPPKVDPATYGIIVPVLTSLFNKVETAVGAKVSDEIWNYNSPDVSESEESLSDDFFD	~2	~3
CH-PfCelTOS (P. falciparum cell-traversal protein for ookinetes and sporozoites, expressed from the codon harmonized sequence) (natural protein, UniProt Q8I5P1 25-182, looked up, begins at F R G and holds 158 PfCelTOS residues; 174 residues in all with the 16 amino acid linker; natural residue numbering; also called CH-protein; source: E. coli B834 (DE3), purified (Ni-NTA, Q-Sepharose); not shown: His6 (within a 16 amino acid linker), N-terminal, kept) FRGNNGHNSSSSLYNGSQFIEQLNNSFTSAFLESQSMNKIGDDLAETISNELVSVLQKNSPTFLESSFDIKSEVKKHAKSMLKELIKVGLPSFENLVAENVKPPKVDPATYGIIVPVLTSLFNKVETAVGAKVSDEIWNYNSPDVSESEESLSDDFFD	~2	~4
histidine tag-free CH-PfCelTOS (natural protein, two non-native amino acid residues introduced by cloning; the chain is 161 residues long, so one more residue stands before them; begins at F R G and holds 158 PfCelTOS residues; natural residue numbering; Made from the CH-PfCelTOS clone by replacing the His-tag linker; this is surmised; also called His-tag free PfCelTOS; Histidine tag-free PfCelTOS; source: E. coli, purified (Q-Sepharose twice, …)) GTFRGNNGHNSSSSLYNGSQFIEQLNNSFTSAFLESQSMNKIGDDLAETISNELVSVLQKNSPTFLESSFDIKSEVKKHAKSMLKELIKVGLPSFENLVAENVKPPKVDPATYGIIVPVLTSLFNKVETAVGAKVSDEIWNYNSPDVSESEESLSDDFFD		~4
